The values below come from patent US20210388087A1 (Chugai, published 2021).

Experiment [1] concerns the target human CD137 expressed on cells (human, UniProt Q07011 24-255). Briefly: cell-based or functional assay.
Experiment [2] has as its target T1, Extracellular domain (24-186) of human CD137 (human, UniProt Q07011 24-186).
T1 construct: Fc cleaved off; also called hCD137; CD137 extracellular domain
Kind of experiment: complex formation, gel filtration.
Protocol: Purified CD137 was mixed with GST-tag fused Endoglycosidase F1(in-house) for deglycosylation, followed by purification of CD137 using gel filtration column (HiLoad 16/600 Superdex 200 pg, GE healthcare) and Protein A column (HiTrap MabSelect SuRe 1 ml, GE Healthcare). […] The ternary complex was purified by gel filtration chromatography (Superdex200 10/300 increase, GE Healthcare) using a column equilibrated with 25 mM HEPES pH 7.3, 100 mM NaCl.

Experiment [3] deals with T2, Human CD137 ECD (human).
T2 construct: also called recombinant human CD137
Kind of experiment: SPR (Biacore T200), 37 degrees C, antibody captured by anti-human Fc on CM4 chip, recombinant human CD137 as analyte, 1:1 model.
Protocol: (§1) (15-2) Evaluation of the Binding of GPC3/CD3/Human CD137 Trispecific Antibodies Binding Affinity of Trispecific Antibodies to Human CD3 and CD137 were Assessed at 37 Degrees C. Using Binding affinity of trispecific antibodies to human CD3 and CD137 were assessed at 37 degrees C. using Biacore T200 instrument (GE Healthcare). Anti-human Fc antibody (GE Healthcare) was immobilized onto all flow cells of a CM4 sensor chip using amine coupling kit (GE Healthcare). Antibodies were captured onto the anti-Fc sensor surfaces, then recombinant human CD3 or CD137 was injected over the flow cell. All antibodies and analytes were prepared in ACES pH 7.4 containing 20 mM ACES, 150 mM NaCl, 0.05% Tween 20, 0.005% NaN3. Sensor surface was regenerated each cycle with 3M MgCl2.

For experiment [4], the target named is T2, Human CD137 ECD. Kind of experiment: SPR (Biacore T200), 37 degrees C, antibody captured by anti-human Fc on CM4 chip, recombinant human CD137 as analyte, 1:1 model; 37 degrees C.
Protocol: as §1
Another experiment concerns the target T3, Human CD3eg linker (human).
T3 construct: also called recombinant human CD3
T3 chain: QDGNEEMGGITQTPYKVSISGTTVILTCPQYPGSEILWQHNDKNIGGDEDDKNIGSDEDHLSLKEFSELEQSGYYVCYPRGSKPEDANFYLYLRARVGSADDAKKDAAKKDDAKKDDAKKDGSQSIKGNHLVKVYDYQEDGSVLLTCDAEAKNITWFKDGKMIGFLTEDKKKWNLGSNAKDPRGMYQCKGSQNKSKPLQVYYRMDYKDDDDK
Briefly: SPR (Biacore T200), 37 degrees C, antibody captured by anti-human Fc on CM4 chip, recombinant human CD3 as analyte, 1:1 model.

The target of experiment [5] is T4, biotin-labeled cynomolgus monkey CD137 fused to human IgG1 Fc fragment (cynomolgus monkey; human, UniProt Q07011 24-186, limits assumed, biotin-labeled).
T4 construct: also called cyno CD137-Fc; not shown: human IgG1 Fc fragment
T4 chain: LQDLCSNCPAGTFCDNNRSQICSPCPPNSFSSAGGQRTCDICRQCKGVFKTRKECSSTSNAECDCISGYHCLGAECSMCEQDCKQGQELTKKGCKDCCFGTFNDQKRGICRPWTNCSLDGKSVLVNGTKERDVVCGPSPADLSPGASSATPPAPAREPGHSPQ
Briefly: ELISA on streptavidin beads. In general terms: ELISA stands for enzyme-linked immunosorbent assay.

Experiment [6] addresses T5, biotin-labeled human CD137 fused to human IgG1 Fc fragment (human, UniProt Q07011 24-186, biotin-labeled).
T5 construct: also called human CD137-Fc; biotin-human CD137-Fc; not shown: human IgG1 Fc fragment
Briefly: bead ELISA, 1250 ng IgG, S/N over biotin-human Fc.

Experiment [7] addresses T5, biotin-labeled human CD137 fused to …. Kind of experiment: ELISA on streptavidin beads, purified IgG.

T2 sequence (chain, as listed by the source limits assumed): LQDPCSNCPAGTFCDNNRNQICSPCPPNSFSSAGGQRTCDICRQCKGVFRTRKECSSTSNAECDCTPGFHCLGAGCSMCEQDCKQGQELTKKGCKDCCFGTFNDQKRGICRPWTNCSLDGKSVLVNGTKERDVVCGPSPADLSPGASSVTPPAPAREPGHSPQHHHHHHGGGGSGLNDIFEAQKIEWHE
Chain of human CD137 expressed on cells (Q07011 24-255): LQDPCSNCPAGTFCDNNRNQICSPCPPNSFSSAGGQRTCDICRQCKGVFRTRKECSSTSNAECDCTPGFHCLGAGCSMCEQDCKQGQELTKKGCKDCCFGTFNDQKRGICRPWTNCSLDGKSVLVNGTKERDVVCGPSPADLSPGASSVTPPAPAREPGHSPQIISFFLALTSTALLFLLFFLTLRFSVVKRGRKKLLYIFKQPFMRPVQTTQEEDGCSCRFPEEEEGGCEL
T5 sequence (Q07011 24-186 limits assumed): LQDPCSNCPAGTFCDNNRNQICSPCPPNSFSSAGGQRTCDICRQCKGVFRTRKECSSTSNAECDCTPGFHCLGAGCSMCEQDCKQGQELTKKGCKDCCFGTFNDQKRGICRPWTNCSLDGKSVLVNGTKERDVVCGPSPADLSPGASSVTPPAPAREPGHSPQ
T1 sequence (Q07011 24-186 limits assumed): as above
Protocol for Human CD3eg linker: as §1

B1: GPC3/CD137×CD3 trispecific antibody (other)
VH 1: QVQLQQWGAGLLKPSETLSLTCAVYGGSFSGYYWSWIRQSPEKGLEWIGEINHGGYVTYNPSLESRVTISVDTSKNQFSLKLSSVTAADTAVYYCARDYGPGNYDWYFDLWGRGTLVTVSS
VL 1: EIVLTQSPATLSLSPGERATLSCRASQSVSSYLAWYQQKPGQAPRLLIYDASNRATGIPARFSGSGSGTDFTLTISSLEPEDFAVYYCQQRSNWPPALTFGGGTKVEIK
VH 2: QVQLVESGGGLVQPGRSLRLSCAASGFTFSNAWMHWVRQAPGKGLEWVAQIKDRANSYNTYYAESVKGRFTISRDDSKNSIYLQMNSLKTEDTAVYYCRYVHYTTYAGSSFSYGVDAWGQGTTVTVSS
VL 2: DIVMTQSPLSLPVTPGEPASISCRSSQPLVHSNRNTYLHWYQQKPGQAPRLLIYKVSNRFSGVPDRFSGSGSGTDFTLKISRVEAEDVGVYYCGQGTQVPYTFGQGTKLEIK
VH 3: QVQLVQSGAEVKKPGASVTVSCKASGYTFTDYEMHWIRQPPGEGLEWIGAIDGPTPDTAYSEKFKGRVTLTADKSTSTAYMELSSLTSEDTAVYYCTRFYSYTYWGQGTLVTVSS
VL 3: DIVMTQSPLSLPVTPGEPASISCRSSQPLVHSNRNTYLHWYQQKPGQAPRLLIYKVSNRFSGVPDRFSGSGSGTDFTLKISRVEAEDVGVYYCGQGTQVPYTFGQGTKLEIK
As for B1, in experiment [1], the “Luminescence against CD137 positive cells relative to that against GPC3 positive cells, 1 nM” value is about 107% and the “Luminescence against CD137 positive cells relative to that against GPC3 positive cells, 10 nM” value was about 128%.

B2: H0868L0581 Fab (Fab, V domains shown)
VH: QVQLVESGGGLVQPGRSLRLSCAASGFKFSNVWMHWVRQAPGKGLEWVAQIKDKYNAYAAYYAPSVKGRFTISRDDSKNSIYLQMNSLKTEDTAVYYCHYVHYASASTLLPAFGVDAWGQGTTVTVSS
VL: DIVMTQSPLSLPVTPGEPASISCQPSQEVVHMNRNTYLHWYQQKPGQAPRLLIYKVSNRFPGVPDRFSGSGSGTDFTLKISRVEAEDVGVYYCAQGTSHPFTFGQGTKLEIK
notes: Fab made by limited Lys-C digestion of the bivalent antibody; also called H0868L581; Fab fragment of H0868L0581
On to B2, for which the binding result in experiment [2] is reported as “binds”.

B3: GPC3/CD137 × CD3 trispecific antibody (antibody, V domains shown)
VH 1: QVQLQQWGAGLLKPSETLSLTCAVYGGSFSGYYWSWIRQSPEKGLEWIGEINHGGYVTYNPSLESRVTISVDTSKNQFSLKLSSVTAADTAVYYCARDYGPGNYDWYFDLWGRGTLVTVSS
VL 1: EIVLTQSPATLSLSPGERATLSCRASQSVSSYLAWYQQKPGQAPRLLIYDASNRATGIPARFSGSGSGTDFTLTISSLEPEDFAVYYCQQRSNWPPALTFGGGTKVEIK
VH 2: QVQLVESGGGLVQPGRSLRLSCAASGFTFSNAWMHWVRQAPGKGLEWVAQIKDRANSYNTYYAESVKGRFTISRDDSKNSIYLQMNSLKTEDTAVYYCRYVHYTTYAGSSFSYGVDAWGQGTTVTVSS
VL 2: DIVMTQSPLSLPVTPGEPASISCRSSQPLVHSNRNTYLHWYQQKPGQAPRLLIYKVSNRFSGVPDRFSGSGSGTDFTLKISRVEAEDVGVYYCGQGTQVPYTFGQGTKLEIK
VH 3: QVQLVQSGAEVKKPGASVTVSCKASGYTFTDYEMHWIRQPPGEGLEWIGAIDGPTPDTAYSEKFKGRVTLTADKSTSTAYMELSSLTSEDTAVYYCTRFYSYTYWGQGTLVTVSS
VL 3: DIVMTQSPLSLPVTPGEPASISCRSSQPLVHSNRNTYLHWYQQKPGQAPRLLIYKVSNRFSGVPDRFSGSGSGTDFTLKISRVEAEDVGVYYCGQGTQVPYTFGQGTKLEIK
notes: Trispecific mAb AB made by Fab-arm exchange from mAb A (CrossMab, two Fv per arm: Fv A1 and Fv A2) and mAb B (conventional IgG, Fv B); Fc gamma R-silent, deglycosylated Fc; also called GPC3/CD137xCD3
On to B3, for which, in the experiment with Human CD137 ECD [3], the Kd came out at 37.7 nM and the koff came out at 0.0206 s⁻¹. The on-rate (kon) with Human CD137 ECD [4] was 547000 M⁻¹ s⁻¹. Further, in the experiment with Human CD3eg linker, the Kd worked out at 19.7 nM, the koff turned out to be 0.00161 s⁻¹ and the kon stood at 81800 M⁻¹ s⁻¹.

B4: dBBDu126 (antibody, human IgG1, V domains shown)
VH: QVQLVESGGGLVQPGRSLRLSCAASGFTFSIAWMHWVRQAPGKGLEWVAQIKDRVNAYEAYYAPSVKGRFTISRDDSKNSIYLQMNSLKTEDTAVYYCRYVHYASYYDLLGYGGVDAWGQGTTVTVSS
VL: DIVMTQSPLSLPVTPGEPASISCRSSQSLVHSNRNTYLHWYQQKPGQAPRLLIYKVSNRFSGVPDRFSGSGSGTDFTLKISRVEAEDVGVYYCGQGTQVPYTFGQGTKLEIK
notes: human IgG1; GLS3000 light chain; also called DADU01_3 #001; DADU01_3_#001
In the case of B4, the binding result in experiment [5] is on record as “no binding (tested: 25 micro L of 50 ng/micro L purified IgG)”; in experiment [6], “binds”.

B5: dBBDu127 (antibody, human IgG1, V domains shown)
VH: QVQLVESGGGLVQPGRSLRLSCAASGFTFSNAWMHWVRQAPGKGLEWVAQIKDRGQQYNAYYAPSVKGRFTISRDDSKNSIYLQMNSLKTEDTAVYYCHYVHYASASSVLPGYGVDAWGQGTTVTVSS
VL: DIVMTQSPLSLPVTPGEPASISCRSSQSLVHSNRNTYLHWYQQKPGQAPRLLIYKVSNRFSGVPDRFSGSGSGTDFTLKISRVEAEDVGVYYCGQGTQVPYTFGQGTKLEIK
notes: human IgG1; GLS3000 light chain; also called DXDU01_3 #051; DXDU01_3_#051
On to B5, for which, in experiment [7], the binding result was “binds”.

The Kd is a measure of binding affinity in units of concentration. As a reminder, the koff is the first-order rate constant of dissociation. As usually defined, the kon is a measure of how fast the partners come together.
